The target of test [1] is T1, FcγRIa (CD64 Protein, Human, Recombinant (ECD, His Tag)) (human, UniProt P12314 16-292).
T1 construct: extracellular domain; Bought reagent; not shown: His tag
Briefly: SPR (Biacore 8K), His-tagged FcγRIa captured on an anti-His chip, antibody as analyte, endpoint response against concentration. On the procedure: (§1) Binding of BisG1-FAPα-FERL/DR4-FERR to immobilized human His-tagged FcγRs and FcRn was analyzed by SPR using a Biacore 8K SPR system (Cytiva). To this end, anti-His antibodies were covalently immobilized on the surface of Biacore Series S Sensor Chip CM5 (Cytiva, Cat. #29104988) using the Amine Coupling Kit (Cytiva, Cat. #BR100050) and a His Capture Kit (Cytiva, Cat. #29234602) according to the manufacturer's instructions. To assess antibody binding to immobilized human FcγRs, aliquots of the recombinant His-tagged FcγR proteins (Table 24) were diluted in HBS EP+Buffer pH 7.4 (Cytiva, Cat. #BR100669) and used to capture the FcγR proteins on the surface of the anti-His antibody-coated sensors using a flow rate of 10 μL/min and a contact time of 60 s. Captured levels ranged from 434 to 592 RU. After three start-up cycles of HBS-EP+Buffer, concentration ranges of BisG1-FAPα-FERL/DR4-FERR or IgG1-b12 antibodies (Table 25) were injected to generate binding curves on FcγR-captured sensors (active surface). For each antibody sample, a parallel flow cell without captured FcγRs was included (reference surface), which was used for RU background correction.
(§2) All sensorgrams were subtracted by the signal of the third start-up cycle with buffer only (mock analyte). […]

Test [2] concerns the target T2, FcγRIIIa-V158 (CD16a Protein, Human, Recombinant (176 Val, His & AVI Tag)) (human, UniProt P08637 17-208).
T2 construct: Bought reagent; not shown: His & AVI tag
Briefly: SPR (Biacore 8K), His-tagged FcγRIIIa-V158 captured on an anti-His chip, antibody as analyte, endpoint response against concentration. How it is done: as §1, §2

The target of test [3] is T3, His-tagged recombinant Cynomolgus FAPα (Acro Biosystems, Cat #FAP-C52H3-100ug) (cynomolgus monkey, UniProt A0A2K5VGF4 26-760).
T3 construct: Bought reagent; also called recombinant cynomolgus monkey FAPα; not shown: His tag of the vendor's construct (Acro Biosystems FAP-C52H3)
T3 sequence: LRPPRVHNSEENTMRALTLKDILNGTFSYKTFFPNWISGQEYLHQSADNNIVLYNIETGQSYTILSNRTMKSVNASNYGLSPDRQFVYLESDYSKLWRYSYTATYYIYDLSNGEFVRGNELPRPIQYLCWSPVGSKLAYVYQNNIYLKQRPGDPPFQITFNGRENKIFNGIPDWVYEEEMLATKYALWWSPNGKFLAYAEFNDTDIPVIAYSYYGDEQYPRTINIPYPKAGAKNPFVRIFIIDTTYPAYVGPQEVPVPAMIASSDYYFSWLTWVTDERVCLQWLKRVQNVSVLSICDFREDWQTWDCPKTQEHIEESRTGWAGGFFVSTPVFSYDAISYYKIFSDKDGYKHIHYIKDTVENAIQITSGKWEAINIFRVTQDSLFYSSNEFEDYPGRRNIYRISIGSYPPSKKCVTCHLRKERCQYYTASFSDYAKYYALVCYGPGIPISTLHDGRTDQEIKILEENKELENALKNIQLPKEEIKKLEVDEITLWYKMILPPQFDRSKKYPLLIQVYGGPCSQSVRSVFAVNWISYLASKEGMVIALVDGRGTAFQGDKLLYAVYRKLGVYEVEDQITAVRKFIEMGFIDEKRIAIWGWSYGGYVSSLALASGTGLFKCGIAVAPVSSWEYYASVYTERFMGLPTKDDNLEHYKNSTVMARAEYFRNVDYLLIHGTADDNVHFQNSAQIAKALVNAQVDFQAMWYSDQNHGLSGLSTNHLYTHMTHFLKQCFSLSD
Briefly: BLI, antigen immobilized on AR2G sensors. On the procedure:
Experiments were carried out while shaking at 1,000 RPM at 30° C. Amine Reactive 2nd Generation (AR2G) biosensors (Sartorius, Cat #18-5092) were activated by reaction with 20 mM EDC (N-(3-Dimethylaminopropyl)-N′-ethylcarbodiimide hydrochloride) (Sigma-Aldrich, Cat #03449) and 10 mM s-NHS (N-hydroxysulfosuccinimide sodium salt) (Sigma-Aldrich, Cat #56485) for 300 s. The activated AR2G sensors were loaded with 2.5 μg/mL His-tagged recombinant Human FAPα (Acro Biosystems, Cat #FAP-H5244-100ug) in 10 mM Sodium Acetate pH 5.0 (Sartorius, Cat #18-1069) or 2.5 μg/mL His-tagged recombinant Cynomolgus FAPα (Acro Biosystems, Cat #FAP-C52H3-100ug) in 10 mM Sodium Acetate pH 5.0 for 600 s and quenched with 1 M ethanolamine pH 8.5 (Sartorius Cat #18-1071) for 300 s. After a baseline measurement in Sample Diluent (1000 s; Sartorius, Cat #18-1104), the association (100 s) and dissociation (4,000 s) of functionally monovalent antibody was determined using a concentration range of 0.78-800 nM with two-fold dilution steps in Sample Diluent. The molecular mass of the antibodies used for the calculations was calculated from the sequences.
The Y-axis was aligned to the last 10 s of the baseline; Interstep Correction alignment to dissociation and Savitzky-Golay filtering were applied. Data traces with a response <0.05 nm were excluded from analysis. […]
A general note: Biolayer interferometry detects binding as a change in optical thickness at a sensor tip.

The record followed here is patent US20250002610A1 (Genmab, published 2025).

T2 sequence (P08637 17-208 F176V limits assumed): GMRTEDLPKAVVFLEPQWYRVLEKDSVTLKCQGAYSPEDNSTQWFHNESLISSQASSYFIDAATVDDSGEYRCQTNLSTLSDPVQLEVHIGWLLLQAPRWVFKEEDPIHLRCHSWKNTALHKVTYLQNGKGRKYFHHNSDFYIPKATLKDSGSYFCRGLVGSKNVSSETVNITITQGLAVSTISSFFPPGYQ
T1 sequence (P12314 16-292): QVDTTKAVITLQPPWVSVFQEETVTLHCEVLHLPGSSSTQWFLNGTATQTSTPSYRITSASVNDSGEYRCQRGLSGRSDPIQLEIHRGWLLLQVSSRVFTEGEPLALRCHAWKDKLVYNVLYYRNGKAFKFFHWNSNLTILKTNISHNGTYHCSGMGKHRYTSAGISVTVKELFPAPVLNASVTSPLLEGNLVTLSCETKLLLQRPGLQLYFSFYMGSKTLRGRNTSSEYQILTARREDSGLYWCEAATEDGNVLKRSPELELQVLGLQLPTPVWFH

B1: IgG1-b12 (antibody)
heavy: not shown
light: EIVLTQSPGTLSLSPGERATFSCRSSHSIRSRRVAWYQHKPGQAPRLVIHGVSNRASGISDRFSGSGSGTDFTLTITRVEPEDFALYYCQVYGASSYTFGQGTKLERKRTVAAPSVFIFPPSDEQLKSGTASVVCLLNNFYPREAKVQWKVDNALQSGNSQESVTEQDSKDSTYSLSSTLTLSKADYEKHKVYACEVTHQGLSSPVTKSFNRGEC
notes: HIV gp120 antibody b12 with wild-type IgG1 Fc; also called IgG-b12
As to B1, the binding result in test [1] and in test [2] was “binds” throughout.

B2: BisG1-b12-FERL/DR4-FERR (bispecific antibody, human IgG1, kappa, lambda)
heavy 1: QVQLVQSGAEVKKPGASVKVSCQASGYRFSNFVIHWVRQAPGQRFEWMGWINPYNGNKEFSAKFQDRVTFTADTSANTAYMELRSLRSADTAVYYCARVGPYSWDDSPQDNYYMDVWGKGTTVIVSSASTKGPSVFPLAPSSKSTSGGTAALGCLVKDYFPEPVTVSWNSGALTSGVHTFPAVLQSSGLYSLSSVVTVPSSSLGTQTYICNVNHKPSNTKVDKRVEPKSCDKTHTCPPCPAPEFERGPSVFLFPPKPKDTLMISRTPEVTCVVVDVSHEDPEVKFNWYVDGVEVHNAKTKPREEQYNSTYRVVSVLTVLHQDWLNGKEYKCKVSNKALPAPIEKTISKAKGQPREPQVYTLPPSREEMTKNQVSLTCLVKGFYPSDIAVEWESNGQPENNYKTTPPVLDSDGSFLLYSKLTVDKSRWQQGNVFSCSVMHEALHNHYTQKSLSLSPG
light 1: B1 light
heavy 2: QVQLQESGPGLVKPSGTLSLTCAVSGGSISSYSWWSWIRQPPGKGLEWIGELYHSGSTNYNPSLKSRVTISVDKSKNQFSLKLRSVTAADTAVYYCVRGVATIDYWGQGTLVTVSSASTKGPSVFPLAPSSKSTSGGTAALGCLVKDYFPEPVTVSWNSGALTSGVHTFPAVLQSSGLYSLSSVVTVPSSSLGTQTYICNVNHKPSNTKVDKRVEPKSCDKTHTCPPCPAPEFERGPSVFLFPPKPKDTLMISRTPEVTCVVVDVSHEDPEVKFNWYVDGVEVHNAKTKPREEQYNSTYRVVSVLTVLHQDWLNGKEYKCKVSNKALPAPIEKTISKAKGQPREPQVYTLPPSREEMTKNQVSLTCLVKGFYPSDIAVEWESNGQPENNYKTTPPVLDSDGSFFLYSRLTVDKSRWQQGNVFSCSVMHEALHNHYTQKSLSLSPG
light 2: QSALTQPPSASGSPGQSVTISCTGTSSDVGGYNFVSWYQQDPGKAPKLLIYEVTKRPSGVPDRFSGSKSGNTASLTVSGLQAEDEADYYCSSYAGSNNVMFGGGTKLTVLGQPKAAPSVTLFPPSSEELQANKATLVCLISDFYPGAVTVAWKADSSPVKAGVETTTPSKQSNNKYAASSYLSLTPEQWKSHRSYSCQVTHEGSTVEKTVAPTECS
notes: Fab-arm exchange of IgG1-b12-FERL and IgG1-DR4-FERR; also called bsIgG1-ctrl-FERLxDR4-FERR
On to B2, for which the binding result in test [3] is recorded as “no binding (tested: 800 nM)”.
